Reference: publication PMC9945994 (Proceedings of the National Academy of Sciences of the …, 2023)
Several values for one entry are separate records, joined by “and”; a condition that tells them apart may be missing. Equal entries are not always repeated.

Assays:
[1] = target: PscA, 82-kDa core subunit of the green sulfur bacterial reaction center (GsbRC) (Chlorobaculum tepidum TLS); assay: cryo-EM structure
[2] = target: reaction center of the green sulfur bacterium Chlorobaculum tepidum (GsbRC) (Chlorobaculum tepidum TLS) (UniProt O07091)
[3] = target: T1, Fenna–Matthews–Olson (FMO) protein (Chlorobaculum tepidum TLS, UniProt Q46393 1-366); assay: cryo-EM structure
T1 sequence (looked up): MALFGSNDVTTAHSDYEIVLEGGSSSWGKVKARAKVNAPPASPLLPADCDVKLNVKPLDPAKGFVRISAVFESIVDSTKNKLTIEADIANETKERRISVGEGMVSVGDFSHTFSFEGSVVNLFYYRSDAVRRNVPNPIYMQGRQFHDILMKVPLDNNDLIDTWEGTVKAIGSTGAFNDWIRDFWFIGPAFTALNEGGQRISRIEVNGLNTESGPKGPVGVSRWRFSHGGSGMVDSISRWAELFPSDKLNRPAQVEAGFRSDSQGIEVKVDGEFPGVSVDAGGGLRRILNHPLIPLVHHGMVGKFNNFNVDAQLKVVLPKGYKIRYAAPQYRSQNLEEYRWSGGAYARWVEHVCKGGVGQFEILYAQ

PscA, 82-kDa core subunit of the green sulfur bacterial reaction center (GsbRC) (natural protein)
stoichiometry N [1]: 2

B1: Fenna–Matthews–Olson (FMO) protein (natural protein)
chain: T1 sequence (looked up)
stoichiometry N [2]: 2 and 1

B2: PscD, 17-kDa protein of GsbRC (natural protein, Chlorobaculum tepidum TLS, UniProt Q8KEP5 1-143, looked up)
chain: MQPQLSRPQTASNQVRKAVSGPWSGNAVHKAEKYFITSAKRDRDGKLQIELVPASGRRKLSPTPEMIRRLIDGEIEIYILTTQPDIAIDMNKEIIDMENRYVIDFDKRGVKWTMREIPVFYHEGKGLCVELHNKIYTLDQFFK
binding result [3]: binds
